Measured values taken from article PMC6075865.

Molecular target: preformed binary t-SNARE complex of Syx 1a (amino acids 1-262) and SNAP25 (amino acids 1-206), O35526
Experiment: SDS-resistant SNARE complex formation (SDS-PAGE without boiling, Coomassie staining); t-SNAREs preformed 1 hr (syntaxin 1 3 uM, SNAP25 15 uM), peptide (50 uM) or none added for 30 min, then GST-SybII (3 uM); 25 C; 100 mM NaCl, 1 mM DTT, 1 mM EDTA, 0.5% Triton X-100, 20 mM Tris pH 7.4; time …
Conditions: other: SDS-resistant SNARE complex formation (SDS-PAGE without boiling, Coomassie staining)

preformed binary t-SNARE complex of Syx 1a (amino acids 1-262) and SNAP25 (amino acids 1-206), O35526, sequence (O35526 whole entry, looked up, the tested form may be a part, one chain of several): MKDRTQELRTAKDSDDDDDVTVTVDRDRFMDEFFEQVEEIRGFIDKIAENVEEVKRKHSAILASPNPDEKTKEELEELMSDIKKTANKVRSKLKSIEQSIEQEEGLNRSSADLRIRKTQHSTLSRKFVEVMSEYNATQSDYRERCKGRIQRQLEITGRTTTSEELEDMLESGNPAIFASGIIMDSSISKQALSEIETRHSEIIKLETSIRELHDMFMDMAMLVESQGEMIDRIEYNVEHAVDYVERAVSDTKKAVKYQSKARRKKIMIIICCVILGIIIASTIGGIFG

B1: scrambled variant of the CpxII CTD peptide, in solution (peptide)
chain: KVPYELGGQLPELKTSDPIEGEDEDELFMKEIAC
amount of assembled SNARE complexes (m10 with m11) after 240 min with 50 uM peptide, % of control: scr-peptide 88.8 ± 9.6 | rate of SNARE complex assembly (m10 with m11) with 50 uM peptide, % of control: 106.6 ± 16.7% of control

B2: CpxII CTD peptide (amino acids 101-134), in solution (peptide)
chain: IPAGCGDEEEEEEESILDTVLKYLPGPLQDMFKK
amount of assembled SNARE complexes (m10 with m11) after 240 min with 50 uM peptide, % of control: CTD-peptide 92.3 ± 9.1 | rate of SNARE complex assembly (m10 with m11) with 50 uM peptide, % of control: 51.4 ± 3.8% of control
